# Laboratory results as given in the RNAGym collection of RNA variant scans (doi:10.1101/gr.219683.116).
# B1: mRNA-splicing (parent)
# chain: AGUUGCUGCUGGGAGCUCCAGCACAGUGAAAUGGACAGAAGGGCAGAGCAA
# Variants of: B1
# Test: exon inclusion enrichment index; higher = more inclusion; WT1 exon 5 minigene, HEK293
row,Variant,exon inclusion enrichment index
1,AGUUACCACCGGGAUCUCCAGCACAGUGAAAUGGACAGAAGGGCAGAGCAA,2.27
2,AGUUACCACCGGGACCUCCAGCACAGUGAAAUGGACAGAAGGGCAGAGCAA,2.72
3,AGUUACCACCGGGAACUCCAGCACAGUGAAAUGGACAGAAGGGCAGAGCAA,2.02
4,AGUUACCACCGGGAGCUCCAAGACAGUGAAAUGGACAGAAGGGCAGAGCAA,2.31
5,AGUUACCACCGGGAGCUCCAAAACAGUGAAAUGGACAGAAGGGCAGAGCAA,1.09
6,AGUUACCACCGGGAGCUCCAAUACAGUGAAAUGGACAGAAGGGCAGAGCAA,1.26
7,AGUUACCACCGGGACUUCCAGCACAGUGAAAUGGACAGAAGGGCAGAGCAA,2.28
8,AGUUACCACCGGGACAUCCAGCACAGUGAAAUGGACAGAAGGGCAGAGCAA,1.77
9,AGUUACCACCGGGACGUCCAGCACAGUGAAAUGGACAGAAGGGCAGAGCAA,2.13
10,AGUUACCACCGGGAGCUCCAGCACAGUGAAAUGGAAAGAAGGGCAGAGCAA,1.85
11,AGUUACCACCGGGAGCUCCAGCACAGUGAAAUGGAUAGAAGGGCAGAGCAA,0.719
12,AGUUACCACCGGGAGCUCCAGCACAGUGAAAUGGAGAGAAGGGCAGAGCAA,1.55
13,AGUUACCACCGGGAGCUCCAGCACAGUGAAAUGGAAUGAAGGGCAGAGCAA,1.07
14,AGUUACCACCGGGAGCUCCAGCACAGUGAAAUGGAACGAAGGGCAGAGCAA,2.61
15,AGUUACCACCGGGAGCUCCAGCACAGUGAAAUGGAAGGAAGGGCAGAGCAA,1.06
16,AGUUACCACCGGGAUGUCCAGCACAGUGAAAUGGACAGAAGGGCAGAGCAA,1.74
17,AGUUACCACCGGGAUAUCCAGCACAGUGAAAUGGACAGAAGGGCAGAGCAA,1.58
18,AGUUACCACCGGGAUUUCCAGCACAGUGAAAUGGACAGAAGGGCAGAGCAA,1.86
19,AGUUACCACCGGGAGCUCCAGCACAACGAAAUGGACAGAAGGGCAGAGCAA,3.43
20,AGUUACCACCGGGAGCUCCAGCACAAGGAAAUGGACAGAAGGGCAGAGCAA,2.93
21,AGUUACCACCGGGAGCUCCAGCACAAAGAAAUGGACAGAAGGGCAGAGCAA,2.4
22,AGUUACCACCCAGAGCUCCAGCACAGUGAAAUGGACAGAAGGGCAGAGCAA,0.351
23,AGUUACCACCCUGAGCUCCAGCACAGUGAAAUGGACAGAAGGGCAGAGCAA,0.353
24,AGUUACCACCCCGAGCUCCAGCACAGUGAAAUGGACAGAAGGGCAGAGCAA,0.415
25,AGUUACCACCGGUGGCUCCAGCACAGUGAAAUGGACAGAAGGGCAGAGCAA,0.535
26,AGUUACCACCGGUCGCUCCAGCACAGUGAAAUGGACAGAAGGGCAGAGCAA,1.41

row,Variant,exon inclusion enrichment index
1,AGUUACCACCGGUUGCUCCAGCACAGUGAAAUGGACAGAAGGGCAGAGCAA,1.08
2,AGUUACCACCGGACGCUCCAGCACAGUGAAAUGGACAGAAGGGCAGAGCAA,2.98
3,AGUUACCACCGGAGGCUCCAGCACAGUGAAAUGGACAGAAGGGCAGAGCAA,2.19
4,AGUUACCACCGGAUGCUCCAGCACAGUGAAAUGGACAGAAGGGCAGAGCAA,2.87
5,AGUUACCACCGAUAGCUCCAGCACAGUGAAAUGGACAGAAGGGCAGAGCAA,0.132
6,AGUUACCACCGACAGCUCCAGCACAGUGAAAUGGACAGAAGGGCAGAGCAA,0.711
7,AGUUACCACCGAAAGCUCCAGCACAGUGAAAUGGACAGAAGGGCAGAGCAA,0.689
8,AGUUACCACCGUUAGCUCCAGCACAGUGAAAUGGACAGAAGGGCAGAGCAA,0.053
9,AGUUACCACCGUAAGCUCCAGCACAGUGAAAUGGACAGAAGGGCAGAGCAA,0.238
10,AGUUACCACCGUCAGCUCCAGCACAGUGAAAUGGACAGAAGGGCAGAGCAA,0.477
11,AGUUACCACCGGAAGCUCCAGCACAGUGAAAUGGACAGAAGGGCAGAGCAA,2.41
12,AGUUACCACCGGCAGCUCCAGCACAGUGAAAUGGACAGAAGGGCAGAGCAA,1.1
13,AGUUACCACCGGUAGCUCCAGCACAGUGAAAUGGACAGAAGGGCAGAGCAA,0.0615
14,AGUUACCACCGGGAGCUCCAGCACAGUGAAAUGGACAGAAGGGAUGAGCAA,4.02
15,AGUUACCACCGGGAGCUCCAGCACAGUGAAAUGGACAGAAGGGAGGAGCAA,3.75
16,AGUUACCACCGGGAGCUCCAGCACAGUGAAAUGGACAGAAGGGACGAGCAA,3.95
17,AGUUACCACCGGGAGCUCCAGCACAGUGAAAUGGAGGGAAGGGCAGAGCAA,0.405
18,AGUUACCACCGGGAGCUCCAGCACAGUGAAAUGGAGCGAAGGGCAGAGCAA,0.667
19,AGUUACCACCGGGAGCUCCAGCACAGUGAAAUGGAGUGAAGGGCAGAGCAA,1.08
20,AGUUACCACCAGGAGCUCCAGCACAGUGAAAUGGACAGAAGGGCAGAGCAA,1.34
21,AGUUACCACCUGGAGCUCCAGCACAGUGAAAUGGACAGAAGGGCAGAGCAA,1.6
22,AGUUACCACCCGGAGCUCCAGCACAGUGAAAUGGACAGAAGGGCAGAGCAA,1.96
23,AGUUACCACCGGGAGCUCCACAACAGUGAAAUGGACAGAAGGGCAGAGCAA,2.27
24,AGUUACCACCGGGAGCUCCACGACAGUGAAAUGGACAGAAGGGCAGAGCAA,3.61
25,AGUUACCACCGGGAGCUCCACUACAGUGAAAUGGACAGAAGGGCAGAGCAA,2.19
26,AGUUACCACCGGGAGCUCCAGCACACGGAAAUGGACAGAAGGGCAGAGCAA,3.53

row,Variant,exon inclusion enrichment index
1,AGUUACCACCGGGAGCUCCAGCACACCGAAAUGGACAGAAGGGCAGAGCAA,3.74
2,AGUUACCACCGGGAGCUCCAGCACACAGAAAUGGACAGAAGGGCAGAGCAA,2.48
3,AGUUACCACCGGGAGCUCCAGCAUAGUGAAAUGGACAGAAGGGCAGAGCAA,0.763
4,AGUUACCACCGGGAGCUCCAUCACAGUGAAAUGGACAGAAGGGCAGAGCAA,1.92
5,AGUUACCACCGGGAGCUCCACCACAGUGAAAUGGACAGAAGGGCAGAGCAA,2.25
6,AGUUACCACCGGGAGCUCCAACACAGUGAAAUGGACAGAAGGGCAGAGCAA,1.67
7,AGUUACCACCGGGAGCUCCAGCACAAUGAAAUGGACAGAAGGGCAGAGCAA,3.08
8,AGUUACCACCGGGAGCUCCAGCACACUGAAAUGGACAGAAGGGCAGAGCAA,2.46
9,AGUUACCACCGGGAGCUCCAGCACAUUGAAAUGGACAGAAGGGCAGAGCAA,2.46
10,AGUUACCACCGGGAGCUCCAGCAUCGUGAAAUGGACAGAAGGGCAGAGCAA,3.55
11,AGUUACCACCGGGAGCUCCAGCAUUGUGAAAUGGACAGAAGGGCAGAGCAA,2.36
12,AGUUACCACCGGGAGCUCCAGCAUGGUGAAAUGGACAGAAGGGCAGAGCAA,3.39
13,AGUUACCACCUUGAGCUCCAGCACAGUGAAAUGGACAGAAGGGCAGAGCAA,0.337
14,AGUUACCACCUCGAGCUCCAGCACAGUGAAAUGGACAGAAGGGCAGAGCAA,0.738
15,AGUUACCACCUAGAGCUCCAGCACAGUGAAAUGGACAGAAGGGCAGAGCAA,0.117
16,AGUUACCACCGGGAGCUCCAGCACAGUGAAAUGGAUUGAAGGGCAGAGCAA,1.38
17,AGUUACCACCGGGAGCUCCAGCACAGUGAAAUGGAUGGAAGGGCAGAGCAA,2.16
18,AGUUACCACCGGGAGCUCCAGCACAGUGAAAUGGAUCGAAGGGCAGAGCAA,1.63
19,AGUUACCACCGGGAGCUCCAGCAGUGUGAAAUGGACAGAAGGGCAGAGCAA,2.8
20,AGUUACCACCGGGAGCUCCAGCAGCGUGAAAUGGACAGAAGGGCAGAGCAA,3.54
21,AGUUACCACCGGGAGCUCCAGCAGGGUGAAAUGGACAGAAGGGCAGAGCAA,1.35
22,AGUUACCACCGGGAAUUCCAGCACAGUGAAAUGGACAGAAGGGCAGAGCAA,1.55
23,AGUUACCACCGGGAAGUCCAGCACAGUGAAAUGGACAGAAGGGCAGAGCAA,1.31
24,AGUUACCACCGGGAAAUCCAGCACAGUGAAAUGGACAGAAGGGCAGAGCAA,1.46
25,AGUUACCACCGCCAGCUCCAGCACAGUGAAAUGGACAGAAGGGCAGAGCAA,0.397
26,AGUUACCACCGCUAGCUCCAGCACAGUGAAAUGGACAGAAGGGCAGAGCAA,0.139

row,Variant,exon inclusion enrichment index
1,AGUUACCACCGCAAGCUCCAGCACAGUGAAAUGGACAGAAGGGCAGAGCAA,0.95
2,AGUUACCACCGGGAGCUCCAGCACAGUGAAAUGGACAGAAGGGGUGAGCAA,1.92
3,AGUUACCACCGGGAGCUCCAGCACAGUGAAAUGGACAGAAGGGGCGAGCAA,3.34
4,AGUUACCACCGGGAGCUCCAGCACAGUGAAAUGGACAGAAGGGGGGAGCAA,0.315
5,AGUUACCACCGGCGGCUCCAGCACAGUGAAAUGGACAGAAGGGCAGAGCAA,1.71
6,AGUUACCACCGGCCGCUCCAGCACAGUGAAAUGGACAGAAGGGCAGAGCAA,1.19
7,AGUUACCACCGGCUGCUCCAGCACAGUGAAAUGGACAGAAGGGCAGAGCAA,1.45
8,AGUUACCACCGGGAGCUCCAGCACAUCGAAAUGGACAGAAGGGCAGAGCAA,3.63
9,AGUUACCACCGGGAGCUCCAGCACAUAGAAAUGGACAGAAGGGCAGAGCAA,1.08
10,AGUUACCACCGGGAGCUCCAUGACAGUGAAAUGGACAGAAGGGCAGAGCAA,2.27
11,AGUUACCACCGGGAGCUCCAUUACAGUGAAAUGGACAGAAGGGCAGAGCAA,0.857
12,AGUUACCACCGGGAGCUCCAUAACAGUGAAAUGGACAGAAGGGCAGAGCAA,0.951
13,AGUUACCACCGAGAGCUCCAGCACAGUGAAAUGGACAGAAGGGCAGAGCAA,1.48
14,AGUUACCACCGUGAGCUCCAGCACAGUGAAAUGGACAGAAGGGCAGAGCAA,1.13
15,AGUUACCACCGCGAGCUCCAGCACAGUGAAAUGGACAGAAGGGCAGAGCAA,1.57
16,AGUUACCACCGGGAGCUCCAGCACAGUGAAAUGGACAGAAGGGUAGAGCAA,0.581
17,AGUUACCACCGGGAGCUCCAGCACAGUGAAAUGGACAGAAGGGAAGAGCAA,3.82
18,AGUUACCACCGGGAGCUCCAGCACAGUGAAAUGGACAGAAGGGGAGAGCAA,3.26
19,AGUUACCACCACGAGCUCCAGCACAGUGAAAUGGACAGAAGGGCAGAGCAA,0.699
20,AGUUACCACCAUGAGCUCCAGCACAGUGAAAUGGACAGAAGGGCAGAGCAA,0.486
21,AGUUACCACCAAGAGCUCCAGCACAGUGAAAUGGACAGAAGGGCAGAGCAA,0.934
22,AGUUACCACCGGGAGCUCCAGCACAGUGAAAUGGACAGAAGGGUCGAGCAA,3.16
23,AGUUACCACCGGGAGCUCCAGCACAGUGAAAUGGACAGAAGGGUGGAGCAA,1.53
24,AGUUACCACCGGGAGCUCCAGCACAGUGAAAUGGACAGAAGGGUUGAGCAA,1.51
